T1: hSIRPαV4 (NA11832_V4) (human, UniProt P78324 31-504)
T1 construct: also called human SIRPαV4
T1 chain: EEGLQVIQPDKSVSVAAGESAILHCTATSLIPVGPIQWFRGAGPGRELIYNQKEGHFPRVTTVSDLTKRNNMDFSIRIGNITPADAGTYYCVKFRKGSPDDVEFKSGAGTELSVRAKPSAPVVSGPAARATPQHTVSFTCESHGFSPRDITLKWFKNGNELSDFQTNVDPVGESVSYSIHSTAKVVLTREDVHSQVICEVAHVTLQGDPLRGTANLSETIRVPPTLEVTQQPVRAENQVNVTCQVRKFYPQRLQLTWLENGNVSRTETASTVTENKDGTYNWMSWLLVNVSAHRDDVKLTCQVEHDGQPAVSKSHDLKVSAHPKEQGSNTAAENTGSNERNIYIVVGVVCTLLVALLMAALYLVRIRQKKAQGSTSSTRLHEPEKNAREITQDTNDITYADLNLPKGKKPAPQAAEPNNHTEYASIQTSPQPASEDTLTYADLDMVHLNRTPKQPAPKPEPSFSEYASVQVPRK


Legend:
hSIRPαV8 (NA18570_V8) = target: T2, hSIRPαV8 (NA18570_V8) (human, UniProt P78324 31-504); assay: CELISA, CHO-K1 transfectants
T2 construct: also called human SIRPαV8
Description: (§1) The binding specificity of antibodies hSIRPα.40A and hSIRPα.50A to hSIRPα were compared in a CELISA format. In short, CHO-K1 cells were transiently transfected with hSIRPαV1, hSIRPαV2, hSIRPβ1, hSIRPβL, and hSIRPγ cDNAs. Subsequently, hSIRPα binding was assessed by CELISA using CHO-K1.hSIRPαV1, CHO-K1.hSIRPαV2, CHO-K1.hSIRPβ1, CHO-K1.hSIRPβL, and CHO-K1.hSIRPγ cells. Detection of bound antibody was done with goat-anti-mouse IgG-HRP (Southern Biotech).
(§2) In addition, the specificity of hSIRPα.40A for all known of hSIRPα alleles (allelic variants as described by Takenaka et al., Nat Immunol. 8:1313-1323 (2007) was further investigated by CELISA using the same strategy as above. To this end, hSIRPα.40A binding was assessed using CHO-K1 cells that were transiently transfected with cDNAs encoding full length hSIRPαV1, hSIRPαV2, hSIRPαV3 (NA07056_V3) (SEQ ID NO: 44), hSIRPαV4 (NA11832_V4) (SEQ ID NO: 46), hSIRPαV5 (NA18502_V5) (SEQ ID NO: 48), hSIRPαV6 (NA18507_V6) (SEQ ID NO: 50), hSIRPαV8 (NA18570_V8) (SEQ ID NO: 52), and hSIRPαV9 (NA18943_V9) (SEQ ID NO: 54).

human SIRPα variant 2 = target: T3, human SIRPα variant 2 (human, UniProt P78324 31-504); assay: CELISA, CHO-K1 transfectants
T3 construct: full length ORF on transfected CHO-K1 cells; also called hSIRPαV2; SIRPαV2
Description: as §1, §2

hSIRPαV6 (NA18507_V6) = target: T4, hSIRPαV6 (NA18507_V6) (human, UniProt P78324 31-504); assay: CELISA, CHO-K1 transfectants
T4 construct: also called human SIRPαV6
Description: as §1, §2

hSIRPαV9 (NA18943_V9) = target: T5, hSIRPαV9 (NA18943_V9) (human, UniProt P78324 31-504); assay: CELISA, CHO-K1 transfectants
T5 construct: also called human SIRPαV9
Description: as §1, §2

hSIRPαV3 (NA07056_V3) = target: T6, hSIRPαV3 (NA07056_V3) (human, UniProt P78324 31-504); assay: CELISA, CHO-K1 transfectants
T6 construct: also called human SIRPαV3
Description: as §1, §2

hSIRPαV4 (NA11832_V4) = target: T1, hSIRPαV4 (NA11832_V4); assay: CELISA, CHO-K1 transfectants
Description: as §1, §2

human SIRPα variant 1 [1] = target: T7, human SIRPα variant 1 (human, UniProt P78324 31-504); assay: CELISA, CHO-K1 transfectants
T7 construct: full length ORF on transfected CHO-K1 or HEK293 cells; entry includes the signal peptide; also called hSIRPαV1; SIRPαV1
Description: as §1, §2

hSIRPαV5 (NA18502_V5) = target: T8, hSIRPαV5 (NA18502_V5) (human, UniProt P78324 31-504); assay: CELISA, CHO-K1 transfectants
T8 construct: also called human SIRPαV5
Description: as §1, §2

human SIRPα variant 1 [2] = target: T7, human SIRPα variant 1; assay: flow cytometry, blockade of DyLight488-hCD47/Fc binding to U-937 cells
Description: hCD47 blockade for the KWAR23, clone 18D5, and hSIRPα.40A antibodies was assessed by flow cytometry. For this purpose, THP-1 (ATCC TIB-202) and U-937 (ATCC CRL-1593.2) monocyte cell lines were used as the source of hSIRPα in the assay. THP-1 and U-937 cells were seeded in 96-well round bottomed tissue culture plates and incubated for 45 minutes with FcR Blocking Reagent (Miltenyi Biotec) and indicated anti-hSIRPα antibodies (20 μg/mL and dilutions thereof) in PBS/1% BSA at 4° C. […] After this labeling procedure, cells were washed two times, resuspended in PBS/1% BSA containing 0.1 μg/mL DAPI (BioLegend), and analysed by flow cytometry on the FACSVerse (BD Biosciences). Data were processed and analysed with FlowJo V10 software (FlowJo, LLC) and plotted using GraphPad Prism 6 (GraphPad Software, Inc.). Binding of recombinant hCD47 fused to an Fc domain of human IgG1 was monitored in the presence of increasing amounts of the anti-hSIRPα antibodies. […] IC50 values represent the concentration at which half of the inhibition is observed.

EC50 (hSIRPαV8 (NA18570_V8)) [nM] | EC50 (human SIRPα variant 2) [nM] | EC50 (hSIRPαV6 (NA18507_V6)) [nM] | EC50 (hSIRPαV9 (NA18943_V9)) [nM] | EC50 (hSIRPαV3 (NA07056_V3)) [nM] | EC50 (hSIRPαV4 (NA11832_V4)) [nM] | EC50 (human SIRPα variant 1 [1]) [nM] | EC50 (hSIRPαV5 (NA18502_V5)) [nM] | IC50 (human SIRPα variant 1 [2]) [nM] | Binder
0.089 | 0.089 | 0.136 | 0.115 | 0.107 | 0.1 | 0.134 | 0.115 | 1.42 | hSIRPα.40A (antibody, mouse IgG1, kappa, V domains shown, mouse antibody, full chains without signal peptide; also called mouse hSIRPα.40A) VH: EVQFQQSGTVLARPGTSVKMSCKASGSTFTSYWMHWVKQGPGQGLQWIGAIYPVNNDTTYNQKFKGKAELTVVTSTSTAYMEVSSLTNEDSAVYYCTRSFYYSLDAAWFVYWGQGTLVTVSA VL: DIQMTQSPSSLSASLGERVSLTCRASQDIGSRLNWLQQEPDGTIKRLIYATSSLDSGVPKRFSGSRSGSDYSLTISGLESEDFVDYYCLQYASSPFTFGGGTKLEINR
1.51 | 1.07 | 2.22 | 1.37 | 1.77 | 1.3 | 1.69 | 1.26 | – | hSIRPα.50A (antibody, V domains shown, light chain constant domain not tied; also called mouse hSIRPα.50A; hSIRPα.50A.mIgG1) VH: QVQLQQSGPELVKPGASVRISCKASGFTFTNYYIHWVKQRPGQGLEWIGWIYPGNVNTKYNEKFKAKATLTADKSSTTAYMQLSSLASEDSAVYFCARPTIIATDFDVWGAGTTVTVSS VL: DIVMTQSHKFMSTSVGDRVNITCKASQGVGTAVGWYQQKPGQSPRLLIYWASTRHTGVPDRFTGSGSGTDFSLAISNVQSEDLADYFCQQYSTYPFTFGGGTNLEIK
– | – | – | – | – | – | – | – | 0.284 | KWAR23 (antibody, V domains shown) VH: EVQLQQSGAELVKPGASVKLSCTASGFNIKDYYIHWVQQRTEQGLEWIGRIDPEDGETKYAPKFQDKATITADTSSNTAYLHLSSLTSEDTAVYYCARWGAYWGQGTLVTVSS VL: QIVLTQSPAIMSASPGEKVTLTCSASSSVSSSYLYWYQQKPGSSPKLWIYSTSNLASGVPARFSGSGSGTSYSLTISSMEAEDAASYFCHQWSSYPRTFGAGTKLELK
